Assay results reported in paper PMC8076793.

Target: DexA (bacteriophage T4)
Experiment: SEC; Äkta pure, HiLoad 16/600 Superdex 75 pg (Cef, MRH, Pin, DexA) or Superdex 200 pg (Y04L, Gp57B), in the respective dialysis buffers (Supplementary Table 3)

DexA, sequence (P04536 whole entry): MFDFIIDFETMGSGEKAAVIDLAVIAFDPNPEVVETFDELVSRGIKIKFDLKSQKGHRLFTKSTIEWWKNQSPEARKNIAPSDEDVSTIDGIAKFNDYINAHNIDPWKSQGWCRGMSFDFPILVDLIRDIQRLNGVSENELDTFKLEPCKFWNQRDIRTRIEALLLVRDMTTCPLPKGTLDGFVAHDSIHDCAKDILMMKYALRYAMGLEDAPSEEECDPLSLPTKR

Q: With DexA (enzyme) as the substance, how does the stoichiometry N read?
A: 2
